To fix the notation:
B1: GST-HYP [Drosophila] / Myc-MEK [Drosophila] (parent)
chain 1: MSKNKLNLVLPPVNTEATVAAATVAPTPPFKTPSGTDTHSLLGKPKTSIDALTETLEGLDMGDTERKRIKMFLSQKEKIGELSDEDLEKLGELGSGNGGVVMKVRHTHTHLIMARKLIHLEVKPAIKKQILRELKVLHECNFPHIVGFYGAFYSDGEISICMEYMDGGSLDLILKRAGRIPESILGRITLAVLKGLSYLRDNHAIIHRDVKPSNILVNSSGEIKICDFGVSGQLIDSMANSFVGTRSYMSPERLQGTHYSVQSDIWSLGLSLVEMAIGMYPIPPPNTATLESIFADNAEESGQPTDEPRAMAIFELLDYIVNEPPPKLEHKIFSTEFKDFVDICLKKQPDERADLKTLLSHPWIRKAELEEVDISGWVCKTMDLPPSTPKRNTSPN
chain 2: MGEETINSTQNKTRTKTTRPKAVYLWTVSDVLKWYRRHCGEYTQYEQLFAQHDITGRALLRITDSSLQRMGVTDNRDREAIWREIVKQRLKTDIMEIRDMERLNIY
B2: GST-HYP [Drosophila] / V5-KSR [Drosophila] (parent)
chain 1: MSSNNNAPASAPDTGSTNANDPISGSLSVDSNLVIIQDMIDLSANHLEGLRTQCAISSTLTQQEIRCLESKLVRYFSELLLAKMRLNERIPANGLVPHTTGNELRQWLRVVGLSQGTLTACLARLTTLEQSLRLSDEEIRQLLADSPSQREEEELRRLTRAMQNLRKCMESLESGTAASNNDPEQWHWDSWDRPTHIHRGSVGNIGLGNNSTASPRTHHRQHGVKGKNSALANSTNFKSGRQSPSATEELNSTQGSQLTLTLTPSPPNSPFTPSSGLSSSLNGTPQRSRGTPPPARKHQTLLSQSHVQVDGEQLARNRLPTDPSPDSHSSTSSDIFVDPNTNASSGGSSSNVLMVPCSPGVGHVGMGHAIKHRFTKALGFMATCTLCQKQVFHRWMKCTDCKYICHKSCAPHVPPSCGLPREYVDEFRHIKEQGGYASLPHVHGAAKGSPLVKKSTLGKPLHQQHGDSSSPSSSCTSSTPSSPALFQQRERELDQAGSSSSANLLPTPSLGKHQPSQFNFPNVTVTSSGGSGGVSLISNEPVPEQFPTAPATANGGLDSLVSSSNGHMSSLIGSQTSNASTAATLTGSLVNSTTTTSTCSFFPRKLSTAGVDKRTPFTSEYTDTHKSNDSDKTVSLSGSASTDSDRTPVRVDSTEDGDSGQWRQNSISLKEWDIPYGDLLLLERIGQGRFGTVHRALWHGDVAVKLLNEDYLQDEHMLETFRSEVANFKNTRHENLVLFMGACMNPPYLAIVTSLCKGNTLYTYIHQRREKFAMNRTLLIAQQIAQGMGYLHAREIIHKDLRTKNIFIENGKVIITDFGLFSSTKLLYCDMGLGVPHNWLCYLAPELIRALQPEKPRGECLEFTPYSDVYSFGTVWYELICGEFTFKDQPAESIIWQVGRGMKQSLANLQSGRDVKDLLMLCWTYEKEHRPQFARLLSLLEHLPKKRLARSPSHPVNLSRSAESVF
chain 2: B1 chain 2
B3: Flag-CNK^2–549 [Drosophila] / V5-KSR [Drosophila] (parent)
chain 1: B2 chain 1
chain 2: AYINIAEWTPDQVTDWIKGLDESMKGYLYEFSKQEIGGRALLNIRPYELENLGMLRIGHQEIVLEAVENLRNFHYHLKNDNLQFMALHVATAAKNLHRELARNHAESTKIDTRILHDITRTIATLKPLVGSLERTPFRKQEMYREYCGNVLKCGLELATIAHRDRFALQPVPAIRQSAERLENLANFVIQDISDPMVLQPASLNLVTLKKRESELGFNIESSYNGIHRVTDIKYNSPAHNSGKIEDGDEIVQINYQTVVGWQHRTVLEHLREALPDVVLTVKKRPKHTKMFGQIYMQPYRLPSKKRNMAARWAAQMPSPRAAFLTLDTEQLATGGTGSAVPDPSKSLSSEKREVLTKANPVSSASDSDSSCSDIPTPTDPKLAAREIRLYYPKPRALLQRRNTICGCEYLSLKNSDLVVPSWHERKPGIGSPTNCDPGSPSIRDKSISFGYGLEMAARPTTCIGIAGDTSTDKARRMFHEARKLKQLTEDSQREFLVDRYKPGVSKVVRFDAKEDYVMKNEKFICNVENTILETFEPIPFADEGDEDA

In one assay the parent is B1. In words: GST pull-down, immunoblot quantification. The settings on record: with Myc-MEK [Drosophila]; S2 cells; GST-HYP, Flag-CNK2–549 + RRKM co-expressed; anti-Myc (MEK) blot; parent: 1.
Turning to chain 2 I97D, the ratio to parent came to 0.68.
On the same count and under the same terms, under chain 2 L90D stands 0.09.
Same read-out and setting: under chain 2 L90D I97D stands 0.04.

Variants of B2 are the subject of the next assay. In words: GST pull-down, immunoblot quantification. The following applies: with V5-KSR [Drosophila]; S2 cells; GST-HYP, Flag-CNK2–549 + RRKM co-expressed; anti-V5 (KSR) blot; parent: 1. Background: A western blot detects proteins with antibodies after separation by electrophoresis.
Take chain 2 L90D I97D: the ratio to parent amounted to 0.05.
Consider chain 2 I97D, for which the ratio to parent was determined as 0.62.
Still for that read-out and setting: under chain 2 L90D stands 0.13.

In the next assay the parent is B3. In words: GST pull-down, immunoblot quantification. The following applies: with V5-KSR [Drosophila]; S2 cells; GST-HYP + RRKM co-expressed; captured via GST-HYP; anti-V5 (KSR) blot; parent: 1.
For the variant chain 2 F73R E249R, the ratio to parent is 0.16.
Same read-out and setting: in the case of chain 2 D80R K282D it was 0.16; in that of chain 2 F73R, 0.87; in that of chain 2 V251R, 0.79.
On to chain 2 K282D, for which the ratio to parent came out at 0.03.
Regarding chain 2 F73R V251R, the ratio to parent was found to be 0.72.
As for chain 2 A66F, the ratio to parent worked out at 0.97.
Turning to chain 2 E249R, the ratio to parent stood at 0.82.
Still for that read-out and setting: in the case of chain 2 A66F F73R it was 0.66; in that of chain 2 D80R, 0.61; in that of chain 2 E249R V251R, 0.08.

Staying with this assay, now noted: with V5-KSR [Drosophila]; S2 cells; GST-HYP, Flag-CNK2–549 + RRKM co-expressed; captured via GST-HYP; anti-V5 (KSR) blot; parent: 1.
Consider chain 2 I122D, for which the ratio to parent was determined as 0.76.
On the same count and under the same terms, under chain 2 I122D L151D stands 0.01; under chain 2 L151D, 0.14.

The assay is the same for the next values; noted with them: with V5-KSR [Drosophila]; S2 cells; Flag-CNK2–549, V5-KSR, Myc-MEK, GST-HYP co-expressed; captured via GST-HYP; anti-V5 (KSR) blot; parent: 1.
With chain 2 N81E, the ratio to parent stood at 0.15.
On the same count and under the same terms, in the case of chain 2 N81W it was 0.07; in that of chain 2 Q83E, 0.16.
Turning to chain 2 R98E, the ratio to parent is 0.81.
The same measure, in the same setting: under chain 2 R45F stands 0.99; under chain 2 N95E, 0.92; under chain 2 Y75R, 0.74.

The variants in another assay derive from B3. Briefly: GST pull-down, immunoblot quantification. The settings on record: with V5-KSR [Drosophila], S2 cells, GST-HYP, Myc-MEK co-expressed, captured via GST-HYP, anti-V5 (KSR) blot, parent: 1.
As to chain 2 K109E, the ratio to parent was found to be 0.92.
In the case of chain 2 T135F, the ratio to parent was 0.95.
On the same count and under the same terms, under chain 2 R264E stands 0.89; under chain 2 K33D, 0.95.
On the same count and under the same terms, in the case of chain 2 A40F it was 0.93; in that of chain 2 L267R, 0.89.
With chain 2 H263A, the ratio to parent was determined as 0.9.
The same measure, in the same setting: in the case of chain 2 M196E it was 0.62.

The variants in another assay derive from B3. In words: GST pull-down, immunoblot quantification. The following applies: with V5-KSR [Drosophila], S2 cells, GST-HYP, Myc-MEK co-expressed, captured via GST-HYP, anti-V5 (KSR) blot, parent: 1. The source holds these as a separate data set.
Consider chain 2 S193A, for which the ratio to parent is 0.98.
Same read-out and setting: in the case of chain 2 M196E it was 0.49; in that of chain 2 V197E, 0.07.
Still for that read-out and setting: in the case of chain 2 D194K V197E it was 0.05; in that of chain 2 Q199A, 0.82.

The assay is the same for the next values; noted with them: with V5-KSR [Drosophila]; S2 cells; GST-HYP + RRKM (Ha-RASV12, Pyo-RAF, V5-KSR, Myc-MEK) co-expressed; captured via GST-HYP; anti-V5 (KSR) blot; parent: 1.
With chain 2 S193A, the ratio to parent was found to be 1.
For the variant chain 2 M196E, the ratio to parent was 0.26.
Same read-out and setting: in the case of chain 2 V197E it was 0.03; in that of chain 2 Q199A, 0.73.

Source of the values: article PMC11257983 (2024).
